The source of these data is the supplement of paper PMC9170038.

This data set concerns MS2 coat protein. As to the kind of experiment: apparent KD of MS2 coat protein; designed switch direction (-1 OFF switch, 1 ON switch): -1; higher = weaker reporter binding. A digest of the protocol: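 The buffer was Tris-HCl pH 7.5 with KCl, MgCl2, BSA, DTT, tRNA and Tween-20. In it, SNAP-549-labelled MS2 coat protein was titrated in doubling steps from 0.7 or 1.5 nM to 3 µM over chip-bound RNA switches transcribed by stalled E. coli RNA polymerase on Illumina chips. Apparent KD is the per-design median over clusters of curve fits to normalised fluorescence.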

The mark [1] stands for this setting: Eterna round: R95, input ligand: microRNA oligo, concentration not stated.
[2] abbreviates: input ligand: microRNA oligo, concentration not stated.
The mark [3] stands for this setting: Eterna round: R95, input ligand: FMN 200 uM.
Where [4] appears, read: Eterna round: R95, input ligand: none.

For the sequence “UAAUUAAGUGUGAGGAUAUGCUGGUCCUUGGAUCAGCAGAAGGCACAUGAGGAUCACCCAUGUAAUUUAUAUAU [Mat - Exclusion 4 - JL Mod - D52] (puzzle: Brourd's mod of Exclusion 4)”, under setting [1], the “apparent KD of MS2 coat protein” value amounted to 85.5 nM.
For “UAAUUAAUAAGAUCAAUUAAUUAACAUGAGGAUCACCCAUGUGAGGAUAUCAGCUCGAUUAGAGCUGAGAAGGCACAAUAAUUA [ExNG3/17-C1] (Eterna round: R96, puzzle: Exclusion NG 3)”, under setting [2], the “apparent KD of MS2 coat protein” value is 39 nM.
With “UAAUUAGCAAGUAGAUCCGACAUGAGGAUCACCCAUGUUAUCUGAAAGAACGCAGAAUAAUUGUGAGCUCGUCUAAA [Sensor-V1 #2] (Eterna round: R97, puzzle: Sensor, turn-off variant 1)”, the “apparent KD of MS2 coat protein” value worked out at 144 nM (input ligand: FMN 200 uM) and 154 nM (input ligand: none).
In the same order, the values of “UACACUGCAUGAGGAUCAAACAUGAGGAUCACCCAUGUAUAGCAAGCUUUUUGCUCGUCUUAUAAUUAUGUAGUGUA [Electric Eye 12 - Jieux - Sensor, turn-off variant 1] (Eterna round: R97, puzzle: Sensor, turn-off variant 1)” are 15 nM and 15.7 nM.
“UACAUGAGGAUCACCCAUGUUUUGUCGUGUAUGGUAUUUAUCUAGGAUAUCAAUGUAUUUAAUUAUGAGAAGGAGAAUAUUAAU [JMF's solution 45] (Eterna round: R96, puzzle: Exclusion NG 3)”: the “apparent KD of MS2 coat protein” value is, setting by setting: (input ligand: FMN 200 uM) 45.4 nM; under setting [2], 29.6 nM; (input ligand: none) 44.6 nM.
Regarding “UACAUGAGGAUCACCCAUGUUUUGUCGUGUAUGGUAUUUAUCUAGGAUAUCAAUUUAGUUACUUAUGAGAAGGAGAAUAUUAAU [JMF's solution 77] (Eterna round: R96, puzzle: Exclusion NG 3)”, the “apparent KD of MS2 coat protein” value runs as follows: (input ligand: FMN 200 uM) 33.8 nM; under setting [2], 22.3 nM; (input ligand: none) 38.7 nM.
On the same counts, the results for “UACAUGAGGAUCACCCAUGUUUUGUCGUGUAUGGUAUUUAUCUAGGAUAUCAAUUUAGUUAUGUAUGAGAAGGAGAAUAUUAAU [JMF's solution 78] (Eterna round: R96, puzzle: Exclusion NG 3)” are 43.7 nM, 33.9 nM and 46.4 nM.
On the same counts, the results for “UACAUGAGGAUCACCCAUGUUUUGUCGUGUAUGGUAUUUAUCUAGGAUAUCAUUGUAUUUAUUUAUGAGAAGGAGAAUAUUAAU [JMF's solution 96] (Eterna round: R96, puzzle: Exclusion NG 3)” are 34.4 nM, 24 nM and 32.6 nM.
Turning to “UACAUGAGGAUCACCCAUGUUUUGUCGUGUAUGGUAUUUAUCUAGGAUAUCAUUUUAGUUAGUUAUGAGAAGGAGAAUAUUAAU [JMF's solution 88] (Eterna round: R96, puzzle: Exclusion NG 3)”, the “apparent KD of MS2 coat protein” value under setting [2] is 26.4 nM.
For the sequence “UACCGUGGUUAGGAUAUACCGUGACACCGCUGAGUAGAAGGAACCACAUGAGGAUCACCCAUGUAAUAUGAAGG [Eternabot (L2) Solution 94] (Eterna round: R97, puzzle: Exclusion 6)”, the “apparent KD of MS2 coat protein” value was found to be 159 nM (input ligand: FMN 200 uM) and 51.9 nM (input ligand: none).
For “UACCUGAGGCAAAGCUUUAGGUAAACAUGAGGAUCACCCAUGUAGGAUAUGGUAGGCAAAGCUUACCAGAAGGACAUGUUAAUU [Mat - Exclusion NG 3 - Mod of JL - D34] (Eterna round: R96, puzzle: Exclusion NG 3)”, the “apparent KD of MS2 coat protein” value (input ligand: FMN 200 uM) was determined as 341 nM, the “apparent KD of MS2 coat protein” value under setting [2] stood at 79.5 nM and the “apparent KD of MS2 coat protein” value (input ligand: none) was found to be 83 nM.
In the same order, the values of “UACCUGAGGCUUUGCUUUAGGUAUACAUGAGGAUCACCCAUGUAGGAUAUGGUAGGCUUUGCUUACCAGAAGGACAUGUUAAUU [JL ENG3 1.09] (Eterna round: R96, puzzle: Exclusion NG 3)” are 141 nM, 30.9 nM and 29 nM.
Consider “UAGAAACAUGAGGAUCACCCAUGUGAGGAUAUGAAAAAGAAAAGAAAAGAAAGAAGAAUCAGAAGGCACAAAGU [salish99-ex1_r3_087] (puzzle: Exclusion 1)”, for which the “apparent KD of MS2 coat protein” value came out at 30.5 nM under setting [3], 27.2 nM under setting [1] and 32.3 nM under setting [4].
In the same order, the values of “UAGAAUCGAGGAUAUACAUGAGGAUCACCCAUGUGUGGCCACUUGGUGUGGUCGUCAGGUAGAAGGCGAUUACA [Exclusion 3 - Mod of Jieux's Gilly Gone Silly 23 v.4] (puzzle: Exclusion 3)” are 26.9 nM, 30.9 nM and 39.4 nM.
For “UAGAAUCGAGGAUAUACAUGAGGAUCACCCAUGUGUGGCCAUACGGUGUGGUCGUCAGGUAGAAGGCGAUUAUA [Exclusion 3 - Mod of Jieux's Gilly Gone Silly 23 v.2] (puzzle: Exclusion 3)”, the “apparent KD of MS2 coat protein” value under setting [1] came to 28 nM.
“UAGACCUCGUCAGGAUAUCCAGGUUCUUCGCCCGGAGAAGGGACAUGAGGAUCACCCAUGUAGGAGAGCAUCGCUGUCGAGCAA [Redixeri] (Eterna round: R96, puzzle: Exclusion NG 1)”: the “apparent KD of MS2 coat protein” value was found to be 19.3 nM (input ligand: FMN 200 uM), 11.5 nM under setting [2] and 18.3 nM (input ligand: none).
Regarding “UAGAUGGGAGGAUAUACGUAGAUGCGGAUUCGUGUGGUGCUACAUGAGGAUCACCCAUGUAGAAGGCCCGUCUU [JL-ex2-2.25 Mayanne mod] (puzzle: Exclusion 2)”, the “apparent KD of MS2 coat protein” value under setting [1] was 15.6 nM.
Consider “UAGCAUUGCCUUUGGUAGUGCAUUACAUGAGGAUCACCCAUGUAGGAUAUGGUAGGCUUUGCUUACCAGAAGGACAUGAUAAUU [JL ENG3 1.05] (Eterna round: R96, puzzle: Exclusion NG 3)”, for which the “apparent KD of MS2 coat protein” value (input ligand: FMN 200 uM) was 135 nM, the “apparent KD of MS2 coat protein” value under setting [2] amounted to 38.9 nM and the “apparent KD of MS2 coat protein” value (input ligand: none) was determined as 48.7 nM.
In the same order, the values of “UAGCAUUGCCUUUGGUAGUGCUUUACAUGAGGAUCACCCAUGUAGGAUAUGGUCGGCUUUGCUGACCAGAAGGACAUGUGUAUU [MOD ENG3 1.04 by JL] (Eterna round: R96, puzzle: Exclusion NG 3)” are 130 nM, 94.4 nM and 80.7 nM.
On to “UAGGAUACCGUCAGGAUAUAGAGUUCCCACAGACUCUAGAAGGGACAUGAGGAUCACCCAUGUCGUGCAACGUU [Eternabot (L1) Solution 54] (Eterna round: R97, puzzle: Brourd's mod of Exclusion 4)”, for which the “apparent KD of MS2 coat protein” value by setting is: (input ligand: FMN 200 uM) 20.2 nM; (input ligand: none) 16.2 nM.
As to “UAGGCGUAAGGAUAUAUCUUUGGACGAGCGAGGGACCAGAGAUAGAAGGUACAUGAGGAUCACCCAUGUGGGUC [Eternabot (L1) Solution 41] (Eterna round: R97, puzzle: Exclusion 4)”, the “apparent KD of MS2 coat protein” value was determined as 189 nM (input ligand: FMN 200 uM) and 64.9 nM (input ligand: none).
As to “UAGGUGUGAGGAUAUGGUAAAGAUAAGAUGAUGAAAGAACUCCAGAAGGCACAUGAGGAUCACCCAUGUAGAAG [Mat - Exclusion 4 - Mod of JL - D30] (puzzle: Exclusion 4)”, the “apparent KD of MS2 coat protein” value reads like this: under setting [3], 27.9 nM; under setting [1], 22.8 nM; under setting [4], 24.7 nM.
“UAGUACAGAGGAUAUACAUGAGGAUCACCCAUGUGUUUCAGCUAGGAGACUAGCGAAAGUAGAAGGCUGUACUG [salish99_ex3_r4_010] (Eterna round: R97, puzzle: Exclusion 3)”: the “apparent KD of MS2 coat protein” value reads like this: (input ligand: FMN 200 uM) 26.2 nM; (input ligand: none) 11.4 nM.
“UAGUGGGUACGAAGGAGUAGUUUGAGCGUACGUUCUGUAACAUGAGGAUCACCCAUGUAGCUUUUUGCUCGACUUAU [JR_SV3TOV2_Sub037] (puzzle: Sensor v3, turn-off variant 2)”: the “apparent KD of MS2 coat protein” value worked out at 28.9 nM under setting [3], 55.7 nM under setting [1] and 29.4 nM under setting [4].
On to “UAUACACAUGAGGAUCACCCAUGUGAGGAUAUGUUAAUUUUAAUGAAAAUUAAAAUUAACAGAAGGCACAUAUA [JR_Exclusion1_Sub025] (puzzle: Exclusion 1)”, for which, under setting [1], the “apparent KD of MS2 coat protein” value was 67.2 nM.
In the case of “UAUAUAUAGUAAGGAUAUGUAAUUAUUUUACAAACAGAAGGUACUGACAUGAGGAUCACCCAUGUUUUAGUGUGGGCAUGUAGA [JMF's solution 46] (Eterna round: R96, puzzle: Exclusion NG 1)”, under setting [2], the “apparent KD of MS2 coat protein” value amounted to 39.7 nM.
Still for that read-out and setting: for “UAUAUAUAGUAAGGAUAUGUAAUUAUUUUAUAGACAGAAGGUACUGACAUGAGGAUCACCCAUGUUUUAGUGUGGGCAUGUAGA [JMF's solution 50] (Eterna round: R96, puzzle: Exclusion NG 1)” the value was 60.9 nM.
For “UAUAUAUAGUAAGGAUAUGUAAUUUUUUUAUAAACAGAAGGUACUGACAUGAGGAUCACCCAUGUUUUAGUGUGGGCAUGUAGA [JMF's solution 32] (Eterna round: R96, puzzle: Exclusion NG 1)”, the “apparent KD of MS2 coat protein” value under setting [2] turned out to be 78.3 nM.
Regarding “UAUAUAUAGUAAGGAUAUGUAUAUAUUUUAUGAACAGAAGGUACUGACAUGAGGAUCACCCAUGUUUUAGUGUGGGCAUGUAGA [JMF's solution 70] (Eterna round: R96, puzzle: Exclusion NG 1)”, the “apparent KD of MS2 coat protein” value was found to be 49.4 nM (input ligand: FMN 200 uM), 38.8 nM under setting [2] and 64.8 nM (input ligand: none).
Regarding “UAUAUAUAGUAAGGAUAUGUAUUAAAUUUAUAAACAGAAGGUACUGACAUGAGGAUCACCCAUGUUUUAGUGUGGGCAUGUAGA [JMF's solution 75] (Eterna round: R96, puzzle: Exclusion NG 1)”, under setting [2], the “apparent KD of MS2 coat protein” value turned out to be 69 nM.
